Data: patent US20090012268A1 (B R A H M S, published 2009)
Numbering of substitutions follows the chain as printed. Values joined by “and” are separate entries in the source; they are usually repeats but may differ in a detail not shown here. Equal values may be shown once.

B1: IRI-SAb2 (antibody, IgG2a, V domains shown)
VH: SCKASGYSFTAYTMNWVKQSHGKNLEWIGLINPFNGGTNYNQKFEGKATLTVDKSSTTAYMELLSLTSEDSAVYYCARRVWDYFDYWGQGTSLTVSS
VL: EGSITCKASQNVGTNVAWYQQKGGQSLELLIYGASNRHTGVPDRFTGRGSGTDFTLTITNVQSEDMTNYFCEQYSRYPLTFGAG
notes: Mouse monoclonal IgG2a from a hybridoma; also called mAb IRI-SAb2; DSM ACC2664
B2: IRI-SAb3 Fab fragment (Fab, V domains shown)
VH: B1 VH with K23Y, F34Y, T38A, E45K, T57S, S92T
VL: B1 VL with G23V, N36S, R48S, N60D, R76S
B3: IRI-SAb2 Fab fragment (Fab, V domains shown)
VH: B1 VH
VL: B1 VL
B4: IRI-SAb3 (antibody, IgG1, V domains shown)
VH: B1 VH with K23Y, F34Y, T38A, E45K, T57S, S92T
VL: B1 VL with G23V, N36S, R48S, N60D, R76S

Legend:
[1] = target: T1, recombinant human TSHr preparation immobilized on coated tubes (human, UniProt P16473 21-764, limits assumed); assay: displacement of 50% of 125I-labeled TSH from TSHr coated tubes
T1 construct: also called hTSHr coated tubes; TSHr coated tubes
Method: Selected mAbs and Fabs (generated after papain digestion) were purified by Sepharose-protein A affinity chromatography (ImmunoPure™ Fab preparation Kit, Pierce, Perbio Science, Belgium) and tested for their ability to stimulate cAMP production using JP26 CHO cells in normal isotonic medium (see above). For TBII activity determination, different amounts of antibodies were added in 250 μl of buffer A (20 mM Hepes-NaOH, pH 7.5, 50 mM NaCl, 1% BSA, 10% glycerol, 2 mg/ml mouse IgG) to hTSHr coated tubes. […] The tubes were incubated for 2 h at room temperature, washed four times with 2 ml washing buffer (8 mM Tris-Hl, 60 mM NaCl, 0.02% Tween-20, pH 7.5), and bound radioactivity was counted.

[2] = target: T1, recombinant human TSHr preparation …; assay: saturation with acridinium ester labelled antibody on hTSHr coated tubes; Kd2 of a biphasic curve
Method: (§1) 5 ng (−200 000 RLU) of acridinium ester labelled monoclonal antibody (20) and different amounts of unlabeled antibodies were added in 0.3 ml of buffer A to TSHr coated tubes. Tubes were incubated for 24 h at room temperature, washed four times with 2 ml washing buffer, and RLU were measured in a luminometer.
(§2) The purified antibodies were subsequently labelled with acridinium ester and used in saturation experiments on hTSHr coated tubes.

[3] = target: human TSH receptor expressed on cells (human, UniProt P16473 21-764); assay: cell-based or functional assay
[4] = target: mouse TSHr (mouse, UniProt P47750 22-764); assay: cell-based or functional assay
[5] = target: T1, recombinant human TSHr preparation …; assay: saturation with acridinium ester labelled antibody on hTSHr coated tubes; Kd1 of a biphasic curve
Method: as §1, §2

Chain of mouse TSHr (P47750 22-764): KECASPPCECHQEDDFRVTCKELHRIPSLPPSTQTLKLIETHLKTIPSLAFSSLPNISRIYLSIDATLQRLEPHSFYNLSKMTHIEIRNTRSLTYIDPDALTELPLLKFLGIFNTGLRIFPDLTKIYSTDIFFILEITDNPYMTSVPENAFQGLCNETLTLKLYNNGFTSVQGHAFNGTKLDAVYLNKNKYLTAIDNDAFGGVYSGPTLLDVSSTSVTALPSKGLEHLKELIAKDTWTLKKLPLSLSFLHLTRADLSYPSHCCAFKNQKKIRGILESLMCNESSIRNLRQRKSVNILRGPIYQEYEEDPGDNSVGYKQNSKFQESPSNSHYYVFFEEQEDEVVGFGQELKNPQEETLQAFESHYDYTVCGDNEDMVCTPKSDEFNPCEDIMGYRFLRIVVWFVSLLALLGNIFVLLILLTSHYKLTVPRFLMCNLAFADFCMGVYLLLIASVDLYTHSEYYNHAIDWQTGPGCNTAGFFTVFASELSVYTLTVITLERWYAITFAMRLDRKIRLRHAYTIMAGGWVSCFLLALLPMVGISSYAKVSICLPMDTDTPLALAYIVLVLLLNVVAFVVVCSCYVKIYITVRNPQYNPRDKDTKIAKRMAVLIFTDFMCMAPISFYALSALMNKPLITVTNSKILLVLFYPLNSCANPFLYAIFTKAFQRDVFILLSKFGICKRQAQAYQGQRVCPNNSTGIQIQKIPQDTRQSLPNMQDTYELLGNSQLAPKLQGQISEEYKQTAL

Row | Binder | EC50 of cAMP production in MT3 cells, normal-salt medium [4] [nM] | EC50 of cAMP production in JP26 cells (Fab) [3] [nM] | further results
1 | B1 | 1.3 | – | IC50 [1]: 0.3 µg/mL and 2 nM; Kd [2]: 1.23 nM; EC50 of cAMP production in JP26 cells, normal salt medium (IgG) [3]: 2.75 nM; Kd [5]: 0.07 nM
2 | B2 | – | 74 | –
3 | B3 | – | 1.2 | –
4 | B4 | 3.8 | – | –
